Results on three molecules are retold here after patent US9133449B2, “Mutant pyrrolysyl-tRNA synthetase, and method for production of protein having non-natural amino acid integrated therein by using the same” (priority 2007, dated 2015).

Residue numbers refer to the chain shown, from its start. Numbers in names are those of the source.

Assay [1] has as its system amber stop codon in the chloramphenicol acetyltransferase (CAT) gene, E. coli DH10B cells. The assay is described as follows: Positive selection by suppression of amber stop codon in CAT gene (chloramphenicol resistance). The assay is classed as cell-based.
Method: The PylRS mutant library was first subjected to a positive selection based on suppression of an amber stop codon located at a nonessential position in the chloramphenicol acetyltransferase (CAT) gene. […] Then the surviving cells were grown in the presence of chloramphenicol and the absence of Boc-Lys.
Another assay deals with tRNA^Pyl. The assay is described as follows: Aminoacylation assay of PylRS mutants / PylRS(c270). In kind it is biochemical, Methanosarcina mazei.

Method for tRNA^Pyl: The full length PylRS mutant was overexpressed in E. coli cells, and then purified using HisTrap column (Amersham Biosciences Inc.). Aminoacylation reaction was performed at ca. 37 degrees Celsius for 1 h. The reaction solution for aminoacylation comprises 2.83 μM of purified PylRS derived from M. mazei (or 9 μM of PylRS (c270)), 10 mM of MgCl2, 2 mM of ATP, 4 mM of DTT, 2.11 μM of transcript of M. mazei-derived tRNA^Pyl, and adequate amount of concentrated solution of a variety of amino acids dissolved in 100 mM of HEPES buffer (pH 7.2). Acid-urea polyacrylamide gel electrophoresis was used to analyze whether tRNA had been aminoacylated or not.

B1: PylRS mutant (Y384F) (protein, UniProt Q8PWY1 1-454, looked up, variant Y384F)
Pyrrolysine--tRNA ligase: MDKKPLNTLISATGLWMSRTGTIHKIKHHEVSRSKIYIEMACGDHLVVNNSRSSRTARALRHHKYRKTCKRCRVSDEDLNKFLTKANEDQTSVKVKVVSAPTRTKKAMPKSVARAPKPLENTEAAQAQPSGSKFSPAIPVSTQESVSVPASVSTSISSISTGATASALVKGNTNPITSMSAPVQASAPALTKSQTDRLEVLLNPKDEISLNSGKPFRELESELLSRRKKDLQQIYAEERENYLGKLEREITRFFVDRGFLEIKSPILIPLEYIERMGIDNDTELSKQIFRVDKNFCLRPMLAPNLYNYLRKLDRALPDPIKIFEIGPCYRKESDGKEHLEEFTMLNFCQMGSGCTRENLESIITDFLNHLGIDFKIVGDSCMVFGDTLDVMHGDLELSSAVVGPIPLDREWGIDKPWIGAGFGLERLLKVKHDFKNIKRAARSESYYNGISTNL
As to B1, the entries for the “concentration of chloramphenicol at which cells survived” value in assay [1] (in the absence of Boc-Lys) and in assay [1] (in the presence of Boc-Lys (1 mM)) were “less than 25 μg/ml” and 150 µg/mL, respectively.

B2: PylRS(c270) mutant (Y306A) (protein, UniProt Q8PWY1 185-454, looked up, variant Y306A)
chain: ASAPALTKSQTDRLEVLLNPKDEISLNSGKPFRELESELLSRRKKDLQQIYAEERENYLGKLEREITRFFVDRGFLEIKSPILIPLEYIERMGIDNDTELSKQIFRVDKNFCLRPMLAPNLANYLRKLDRALPDPIKIFEIGPCYRKESDGKEHLEEFTMLNFCQMGSGCTRENLESIITDFLNHLGIDFKIVGDSCMVYGDTLDVMHGDLELSSAVVGPIPLDREWGIDKPWIGAGFGLERLLKVKHDFKNIKRAARSESYYNGISTNL
Regarding B2, the “esterification of tRNA^Pyl with Z-Lys” value in the assay on tRNA^Pyl (substrate Z-Lys, compared with wild-type PylRS) is reported as “much more efficiently than the wild-type PylRS”.

B3: PylRS(c270): M. mazei PylRS of which the 184 amino acids from the N terminus were truncated (protein, UniProt Q8PWY1 185-454, looked up, fragment)
chain: B2 chain with A122Y
For the molecule B3, the “aminoacylation activity with pyrrolysine” value with tRNA^Pyl (substrate pyrrolysine) is “may esterify”.
